Measurements as given in the nanobody polyreactivity screen of Harvey et al. (2022).

experiment: yeast display, Sf9 membrane polyspecificity reagent, FACS + sequencing; frameworks hold sequencing errors
In short: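 A synthetic nanobody library was expressed on Saccharomyces cerevisiae BJ5465 by galactose induction for 36–48 hours. The library was stained for 1 hour at 4 °C with 10% biotinylated, detergent-solubilized Sf9 membrane reagent and enriched with streptavidin microbeads before FACS. Low and high (top ~1%) gates were set on anti-HA fluorescence for expression and streptavidin fluorescence for reagent binding, and each polyreactivity label reflects the gate of origin.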

| Sequence | polyreactivity (PSR sort gate) |
| --- | --- |
| QDQLVESGGGLVQAGGSLRLSCAASGRTFWRNAMGWSRQAPGKEREMVAAINSGGRTYYADAVKGRFTISRDNAKNTVYLQMNSLKPEDTAVYYCAVYVHRFLDGRVRSYRGDYWGQGTQVTVSS | high polyreactivity |
| QVQLEESGGGLVQAGGSLRLSCAASGRTFKLNAMGWYRQAPGKERELVAAISRNGGSTYYADSVKGRFTISRDNAKNTVYLQMNSLKPEDTAVYYCAAVRHGVSLAGYYWGQGTQVTVSS | high polyreactivity |
| QVQLVESGGGLVQAGGSLRLSCAASGFTFGNNAMGWYRQAPGKERELVAAISKRGSSTYYADSVKGRFTISRDNAKNTVYLQMNSLKPEDTAVYYCAAPRSRSRTSRFDYWGQGTQVTVSS | high polyreactivity |
| QVQLVESAGGLVQAGGSLRLSCAAYGSIIKRNAMGWYRQAPRKERQLVATSSSGDGSTRYADSVKWRFTISRDNAKNTVYLQMNSLKPEDTAVYYCALDFTYTYYRWKNPYRIGHDYWGHGTQVTVSS | low polyreactivity |
| QVQLVESGGGLVQAGGSLRLSCAASGRTFYWYAMGWYRKAPGKERELVAAITSGGSTYYADSVKGRFTISRDNEKNTVYLQMNILKPEDTAVYYCGVDVDWWDGMDYWGQGTQVTVSS | high polyreactivity |
| QVQLVESGGRLVQAGGSLRLSCAASRRIFTFYAMGWSRPAPGKERELVAAITGRGGSTYYADSVKGRFTISRDNAKNTVYLQMNSLKPEDTAVYYCAKRTSYRSHRYYYWGQGTQVTVSS | high polyreactivity |
| QVQLVESGGGLVQAGGSLRLSCAASGSIFQPYAMGWYRQAPGKERELVATISSSGSTYYADSVKGRFTISRDNAKNTVYLQMTSLKPEDTAVYYCAAVYSDGPYNGYWLEYEYWGQGTQVTVSS | low polyreactivity |
| QVQLVESGGGLVQAGGSLRLSCAASGLIFYYYVMGWYRQAPGKERELVARISTSGGSTYYADSVKGRFTISRDNAKNTVYLQMNSLKPEDTAVYYCAADHYGGRDYWGQGTQVTVSS | low polyreactivity |
| QVQLVESGGGLVQAGGSLRLSCAASGSTSWIYAMGWYRQAPGQERELVAAISGRDGSTNYADSVKGRFTISRDNAKNTVYLQMNSLKPEDTAVYYCASYLYKSRYLPEYDYWGQGTQVTVSS | high polyreactivity |
| QVQLVESGGVLVQAGGSLRLSCAASGSIFGIYTMGWYIHATGKERELVAAISWSGGSTYYADSVKGRFTISRDNAKNTVFLQMNSLKPEDTAVYYCAAVPWASDGYDSWGQGTQVTVSS | low polyreactivity |
| QVQLVESGGGLVQAGGSLRLSCAASGRTFGTNAMGWYRQAPGKERELVASIDLSADSTYYADSVKGRFTISRDNAKNNFYLQMNSLKPEDTAVYYCNKDGYPWPPNLDYWGQGTQVTVSS | low polyreactivity |
| QVQLVESGGGLVQAGGSLRLSCAASGFIFPWYTMGWYRQAPGKERELVAVINQSGGSTYYADSVKGRFTISRDNAKNPVYLQMNSLKPEDTAVDYCAAKSYYSWGQGTQVTVSS | high polyreactivity |
| QVQLVESGGGLVQAGGSLRLSFAASGRTFRYYAMGWYRQAPGKERELVAAISGRGGSTYYADSVKARFTISRDNAKNSVYLQMNRQKPEDTAVYYCAASFYSIRYDYWGQGTQVTVSS | high polyreactivity |
| QVQLVESGGGLVQAGGRLRLSCAASGRTFDRMLMGWYRQAPGKERELVAAITSGGRTNYADSVKGRFTISRDNAKNTVYLQMNSLKPEDTAVYYCAKRASALLRHSYDYWGQGTQVTVSS | low polyreactivity |
| QVQLVESGGGLVQAGGSLRLSCAASGLIFDKYAMGWYRQAPGKERELVAAITRSSGTTYYADSVKGRFTISRDNAKNTVYLQLNSLKPEDTAVYYCAARFIWGYWGVGYYYWGLGTQVTVSS | low polyreactivity |
| QVQLVESGGGLVQAGGSLRLSCAASGRIFQYYVMGWYRQAPGKERELVAAITSGGGTKYADSVKGRFTISRDNAKNTVYLQMIRLKPEDTAVYYCAAAWFDQYSRYDYWGQCTQVTVSS | low polyreactivity |
| QVQLVESGGGLVQAGGSLRLSCAASGRTFSRYAMGWYRQAPGKERELVAAITWSGGDTYYADSVKGRFTISRDNAKNTVYLQMNSLKPEDTAVYYCAAEWGTVGYIRYYAIWSEYDYWGQGTQVTVSS | low polyreactivity |
| QVQLVESGGGLVQAGGSLRLSCAASGFTFWRNTMGWYRQAPGKEREFVAGISGSGGSTYYADSVKGRFTISRDNAKNTVYLQMNSLKPEDTAVYYCAAVYRFSRTFYTPGYDYWGQGTQVTVSS | high polyreactivity |
| QVQLVESGGGLVQAGGSLRLSCAASGNTFLYYGMGWYRQAPGKERELVAAITQSGGTTYYADSVKGRCTISRDNAKNPVYLQMNSLKPEDTAVYYCAATRYYYYWYVYDDRGDYWGQGTQVTVSS | low polyreactivity |
| QVQLVESGGGLVQAGGSLRLSCAASGSTLLFYAMGWYRQAPGKEREFLATITFRGGSTYYADSVKGRFTISRDNAKNTVYLQMNSLKPEDTAVYYCNAGSRRGYYRSRPGGYCGQGTQVTVSS | high polyreactivity |
| QVQLVESGGVLVQAVGSLRLSCAASGSISSYYAMGWYIQAPGKERELVAAITSGGRTYYADSVKGRFTISRDNAKNTVYLQMNSLKPEATAVYYCAADPDTWSPHYESLGYYWGQGTQVTVSS | high polyreactivity |
| QVQLVESGGGLVQAGGSLRLSCAASGSTFYIYVMGWYRQAPGKERELVATITWGGVSTYYADSVKGRFTISRDNAKNTVYLQMNSLKTEDTAVYYCATRGKSHGQQFNYWGQGTQVTVSS | high polyreactivity |

| Sequence | polyreactivity (PSR sort gate) |
| --- | --- |
| QVQLVESGGGLVQAGGSLRLSCAASGRIFRGYVMGWYRQAPGKERELVAAISSSGGSTYYADSVKGRFTISRDNAKNTVYLQMNSLKPEDTAVYYCAAAKWFFYGRKYGKYDYWGQGTQVTVSS | high polyreactivity |
| QVQLVESGGGLVQAGGSLRLSCAASGRTFSANAMGWYRLAPGKERELVATISSGGRTNYADSVKGRFTISRDNAKNTVYLQMNSLKPEDTAVYYCAKRGPYNRWYGRYDYWGQGTQVTVSS | low polyreactivity |
| QVQLVESGPGLVQAGGSLRLSCAASGSTFAPYALGWYRQAPGIEMELVAAIRSSGGSTYYADSVKGGFTISRDNAKNTVYLQMNSLKPEDTAVYYCADDYYTSADYVDYYYWGQGTQVTVSS | low polyreactivity |
| QDHLVESGGGLVQAGGSLRLICAANGRTFRRYAMGWYRQAPGKERELVATITSGGSTNYADSVKGRFTISRDNAKNTVYLQMNSLKPQDTAVYYCAARHGESHYDYWGQGTQVTVSS | low polyreactivity |
| QVQLVESGGGLVQSGGSLRLSCAASGITFDYYDMGWYRQAPGKERELVATITSDGSTTYADSVKGRFTISRDNAKNTVYLQMNSLKPEDTAVYYCDKRYWSYQYGYRMYYWGQGTQVTVSS | high polyreactivity |
| QVQLVESGGGLVQAGGSLRLSCAASGFTFRWYDMGWYRQAPGKERELVAVISRSGGRTYYADSVKGRFTISRDNAKNTVYLQMNSLKPEDTAVYYCAADWWGYDGRYDYWGQGTQVTVSS | high polyreactivity |
| QVQLVESGGGLVQAGGSLRLSCAASGSTFRHYAMGWYRQAPGKERELVAAISSRGGSTYYADSVKGRFTISRDNAKNTVYLQMNSLKPEDTAVYYCNVVGYQRPSYRHMDYWGQGTQVTVSS | high polyreactivity |
| QFQLVESGGGLVQAGGSLRLSCAASGSTFTANAMGWYRQSPGKERELVAAITNSDGSTYYADSVKGRFTISRDNAKNTVYLQMNSLKPEDTAVYYCAKDYYACYWEMDYWGQGTQVTVSS | low polyreactivity |
| QVQLVESVGGLVQAGGSLRLSCAASGSTFWFYTMGWYRQAPGKERELVATITSGGSTNYADSVKGRFTISRDNAKNTVYLQMNSLKPEDTAVYYCAASSVLTNHDYWGQGTQVTVSS | low polyreactivity |
| QVQLVESGVGLDQAGGSLRLSCAASGSIFRRYAMGWYRQAHGKERELVAAISSNGGSTYYADSVKGRFTISRDNAKNTVYLQMNSLKPEDTAVYYCTAPPLYRDEYWGQGTQVTVAS | high polyreactivity |
| QVQLVESGGGLVQAGGSLRLSCAASGSIFRHYAMGWYSQAPGKERELVASITLRGGSTYYADSVKGPFTISRDNAKNTVYLQMNSLKPEDTAVYYCAKRAGPEYDYWGQGTQVTVSS | low polyreactivity |
| QVQLVESGGGLVQAGGSLRLSCAAYGSNFYLYAMGWYRQAPGKERELVAAITRGGTTNYADSVKGRFTISRDNAKNTVYLQMNSLKPEDTAVYYCAKEVTTLLSLYEIVDRDYWGQGTQVTVSS | low polyreactivity |
| QVQLVESGGGLVQAGGSLRLSCAASGRIFYWYAMGWYRQAPGKERELVATINSGGSTTYADSVKARFTISRDNAKNTVYLQMNSLKPEDTAVYYCARQRTVKKYYNWGQGTQVTVSS | high polyreactivity |
| QVQLVESGGGIVQAGGSLRLSCAASGRTFYDYAMGWYRPAPGKERELVAAISRRAGSTYYADSVKGRFTISRDISKNSVYLQMISLNPEDTAVYFCAAAYSRRWWRGHHYAFDYWGQGTQVTVSS | high polyreactivity |
| QVQLVESGGGLVQAGGSLRLSCAASGRIFRGYVMGWYRQAPGKERELVARITKSGGRTYYADSVKGRFTISRDNAKNTVYLQMNSLKPEDTAVYYCNTAWTGYPRYQYGGNYWGQGTQVTVSS | high polyreactivity |
| QVQLVESGGGLVQAGGSLRLSCAASGYTFLDYAMGWYRQAPGKERELFAAINSGGSTYYADSVKGRFTISRDNAKNSVYFQMNSLNPEDTAVSYCAREDYVSYRLLYYLFDYWGQGTQVTVSS | low polyreactivity |
| QVQLVESGGGLVHAGGSLRLSCAAYGSIFSKYVMGGSREAPGKERELVAAISWSGTRTYYADSVMGRFTISRDNAKNTVYLQMNSLKPEDTAVYYCAARRLYSGHQYDYWGQGTQVTVSS | high polyreactivity |
| QVQLVESGGGLVQAGGSLRLSCAASGFIFKHYAMGWYRQAPGKERELVAAITISASRTYYADSVKGRFTISRDNAKNTVYLQMNSLKPEDTAVYYCARRLLRGSDWGQGTQVTVSS | high polyreactivity |
| QVQLVESGGPLVQAGGSLRLICAASGRTFYYNAKGWYRQAPGKDRELVAAITWSGGGTYYADSVKGRFTISRDNAKNTDYLQMNSLKPEDTAFYYCAAEDWSIEYEYWGQGTQVTVSS | high polyreactivity |
| QVQLIESGGGLVQAGGSLRLSCAASGIIFYDYAMGWYRPAPGKERELVATITSGGSTNYADSVKGRFTISRDNAKNTVYLQMNSLKPEDTAVYYCAAGRGLILGGVYGYDYWGQGTQVTVSS | low polyreactivity |
| QVQLVESGGGLVQAGGSLRLSCAASGITFQYYAMGWYRQAPGKERELVAAISGGGSTNYADSVKGRFTISRDNAKNTVYLQMNSLKPEDTAVYYCAAADLNLELDYWGQGTQVTVSS | high polyreactivity |
